This is an account of results in paper PMC3534379.

Test [1] deals with human CD4 C-terminally fused to the C-terminal fragment of click beetle green (UniProt P01730). The test can be described thus: click beetle luciferase complementation assay in living 293T cells. As to conditions: read off a plot.
Test [2] concerns the target ß-TrCP N-terminally fused to the C-terminal fragment of click beetle green (UniProt Q9Y297). Described as above. Conditions: 36 h after transfection, equal amounts of plasmids, D-Luciferin added, read off a plot.
For test [3], the target named is human CD4 C-terminally fused to the C-terminal fragment of click beetle green (UniProt P01730).
Setting [4] is: + ß-TrCPΔF cotransfected (grey bars), parent: est. 20.
The mark [5] stands for this setting: without ß-TrCPΔF (coloured bars), parent: est. 8.
[6] abbreviates: + ß-TrCPΔF cotransfected (grey bars), parent: est. 14.
[7] abbreviates: without ß-TrCPΔF (coloured bars), parent: est. 13.

Chain of UniProt Q9Y297 (Q9Y297 whole entry, the tested form may be a part): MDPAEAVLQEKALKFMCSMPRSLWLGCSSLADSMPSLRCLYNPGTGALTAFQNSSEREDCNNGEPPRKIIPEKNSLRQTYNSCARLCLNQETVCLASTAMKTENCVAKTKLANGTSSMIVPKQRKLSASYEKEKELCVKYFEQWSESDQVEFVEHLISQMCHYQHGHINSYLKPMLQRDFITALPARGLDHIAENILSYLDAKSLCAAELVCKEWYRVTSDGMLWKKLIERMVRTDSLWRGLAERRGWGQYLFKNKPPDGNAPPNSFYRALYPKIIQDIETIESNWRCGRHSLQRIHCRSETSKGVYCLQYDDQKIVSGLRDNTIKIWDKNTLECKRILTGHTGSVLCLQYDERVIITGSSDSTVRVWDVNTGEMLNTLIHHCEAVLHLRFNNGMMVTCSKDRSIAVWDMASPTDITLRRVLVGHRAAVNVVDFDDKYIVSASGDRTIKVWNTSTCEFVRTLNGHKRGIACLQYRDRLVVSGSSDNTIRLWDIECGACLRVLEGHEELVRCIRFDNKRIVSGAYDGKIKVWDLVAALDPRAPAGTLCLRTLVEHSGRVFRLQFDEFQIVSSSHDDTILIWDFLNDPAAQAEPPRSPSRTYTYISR

Regarding “HIV-1 group M NL4-3 Vpu C-terminally fused to the N-terminal fragment of click beetle green G53D”, the response (RLU/s x 1.000) was 22 in test [1] (setting [4]), 30 in test [1] (setting [5]) and 2.2 in test [2] (parent: est. 6.2).

With “HIV-1 group M NL4-3 Vpu C-terminally fused to the N-terminal fragment of click beetle green S52A; S56A”, the response (RLU/s x 1.000) worked out at 24 in test [1] (setting [4]), 29 in test [1] (setting [5]) and 2.2 in test [2] (parent: est. 6.2).

In turn, “HIV-1 group N DJO0131 Vpu C-terminally fused to the N-terminal fragment of click beetle green (natural protein)” yielded a reduction in CD4 cell surface expression (293T cells, flow cytometry) in test [3] of 2.8 fold.

On to “HIV-1 group N YBF30 Vpu C-terminally fused to the N-terminal fragment of click beetle green (from UniProt O91085) G51D”, for which the response (RLU/s x 1.000) in test [1] (setting [6]) came out at 12; in test [1] (setting [7]) it was 18; in test [2] (parent: est. 4.7) it was 1.3.

With “HIV-1 group N YBF30 Vpu C-terminally fused to the N-terminal fragment of click beetle green (from UniProt O91085) S52A; S56A”, the response (RLU/s x 1.000) in test [1] (setting [6]) was 19; in test [1] (setting [7]), 17; in test [2] (parent: est. 4.7), 0.9.
